Assay results: patent publication US20140274782A1 (Stanford University, published 2014)

Legend:
[1] = target: T1, 3× Flag-SIRT1 methylated by G9a at lysine 622 (293T cells) (UniProt Q96EB6 1-747, methyl-lysine at K622 (state not stated)); assay: GSH-Sepharose pull-down from 293T nuclear extract, anti-Flag Western blot
T1 construct: also called methylated SIRT1; not shown: 3× Flag tag of p3×FLAG-CMV-7
T1 sequence (looked up): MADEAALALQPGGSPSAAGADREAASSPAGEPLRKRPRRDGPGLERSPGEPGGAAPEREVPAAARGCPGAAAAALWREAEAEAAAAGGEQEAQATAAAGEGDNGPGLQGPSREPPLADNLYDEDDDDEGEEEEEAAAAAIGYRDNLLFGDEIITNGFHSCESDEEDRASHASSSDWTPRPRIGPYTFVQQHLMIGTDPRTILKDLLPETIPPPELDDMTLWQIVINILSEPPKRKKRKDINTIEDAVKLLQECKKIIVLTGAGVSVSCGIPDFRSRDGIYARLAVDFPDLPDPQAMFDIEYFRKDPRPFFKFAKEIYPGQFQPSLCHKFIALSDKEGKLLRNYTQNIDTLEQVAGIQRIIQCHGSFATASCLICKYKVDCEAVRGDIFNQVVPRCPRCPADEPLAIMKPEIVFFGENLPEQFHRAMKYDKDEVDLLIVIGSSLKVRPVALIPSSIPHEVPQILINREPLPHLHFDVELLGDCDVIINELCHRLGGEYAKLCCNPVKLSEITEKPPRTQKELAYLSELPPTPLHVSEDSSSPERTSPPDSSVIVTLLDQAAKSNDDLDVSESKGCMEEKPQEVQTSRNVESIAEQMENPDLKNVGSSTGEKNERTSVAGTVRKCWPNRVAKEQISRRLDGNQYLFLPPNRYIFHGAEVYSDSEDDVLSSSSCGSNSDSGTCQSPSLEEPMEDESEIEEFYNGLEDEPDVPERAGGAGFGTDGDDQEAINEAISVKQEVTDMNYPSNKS

[2] = target: T2, RelA mono-methylated at lysine 310 by SETD6 (293T cells) (UniProt Q04206 1-551, monomethyl-lysine at K310); assay: GSH-Sepharose pull-down from 293T nuclear extract, Western blot
T2 construct: also called RelAK310me1; methylated RelA

[3] = target: H3 from HeLa nuclear extract (UniProt P68431 2-136); assay: GSH-Sepharose pull-down from HeLa nuclear extract, Western blot
[4] = target: recombinant H3 dimethylated at lysine 9 by G9a SET domain (UniProt P68431 2-136); assay: Far Western on in vitro methylation reactions
[5] = target: T3, p53 mono-methylated at lysine 382 by SET8 (UniProt P04637 1-393, monomethyl-lysine at K382); assay: Far Western on in vitro methylation reactions
T3 construct: also called p53K382me1; monomethylated p53

[6] = target: T4, biotinylated mono-methylated H4K20 peptide (H4 amino acids 1-23) (UniProt P62805 2-24, monomethyl-lysine at K20; biotinylated); assay: peptide pull-down, Western blot
T4 construct: range 1-23; also called H4K20me1

[7] = target: T5, biotinylated di-methylated H4K20 peptide (H4 amino acids 1-23) (UniProt P62805 2-24, dimethyl-lysine at K20; biotinylated); assay: peptide pull-down, Western blot
T5 construct: range 1-23; also called H4K20me2

[8] = target: T3, p53 mono-methylated at lysine 382 by …; assay: Far Western, α-Flag detection (FIG. 9C)
[9] = target: T4, biotinylated mono-methylated H4K20 …; assay: peptide pull-down, α-Flag Western blot
[10] = target: T5, biotinylated di-methylated H4K20 …; assay: peptide pull-down, α-Flag Western blot
3× Flag-SIRT1K622R = target: T6, 3× Flag-SIRT1K622R (UniProt Q96EB6 1-747); assay: GSH-Sepharose pull-down from 293T nuclear extract, anti-Flag Western blot
T6 construct: not shown: 3× Flag tag of p3×FLAG-CMV-7
T6 sequence (looked up): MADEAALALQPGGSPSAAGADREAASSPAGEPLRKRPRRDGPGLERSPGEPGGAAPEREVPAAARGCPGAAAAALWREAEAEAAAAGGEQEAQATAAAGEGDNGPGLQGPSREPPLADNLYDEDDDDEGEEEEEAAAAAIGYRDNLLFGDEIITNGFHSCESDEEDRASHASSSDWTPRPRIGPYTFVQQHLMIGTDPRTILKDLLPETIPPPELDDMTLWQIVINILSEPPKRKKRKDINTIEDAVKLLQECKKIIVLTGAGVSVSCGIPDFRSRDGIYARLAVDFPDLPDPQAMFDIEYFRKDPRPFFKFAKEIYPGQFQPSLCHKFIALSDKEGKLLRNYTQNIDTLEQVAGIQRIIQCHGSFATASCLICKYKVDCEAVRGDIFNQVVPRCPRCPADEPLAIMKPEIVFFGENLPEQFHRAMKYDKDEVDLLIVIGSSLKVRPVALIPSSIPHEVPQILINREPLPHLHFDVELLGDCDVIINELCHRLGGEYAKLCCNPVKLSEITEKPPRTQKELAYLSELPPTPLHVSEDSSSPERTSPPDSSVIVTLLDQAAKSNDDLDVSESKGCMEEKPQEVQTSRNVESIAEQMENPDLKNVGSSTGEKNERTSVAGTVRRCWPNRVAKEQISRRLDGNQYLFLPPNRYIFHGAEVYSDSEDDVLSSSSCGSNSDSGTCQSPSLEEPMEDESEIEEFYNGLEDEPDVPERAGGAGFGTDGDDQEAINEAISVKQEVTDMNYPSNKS

[11] = target: T7, RelA carrying K310R substitution (UniProt Q04206 1-551); assay: GSH-Sepharose pull-down from 293T nuclear extract, Western blot
T7 construct: also called RelAK310R

[12] = target: T8, recombinant p53 carrying K382R substitution (UniProt P04637 1-393); assay: Far Western on in vitro methylation reactions
T8 construct: also called p53K382R

B1: GST-tagged 3×MBTD355N (methyllysine-binding mutant) (designed binder)
chain: EEWSSSQPATGEKKECWSWESYLEEQKAITAPVSLFQDSQAVTHNKNGFKLGMKLEGIDPQHPSMYFILTVAEVCGYRLRLHFDGYSECHDFWVNANSPDIHPAGWFEKTGHKLQPPKGYKEEEFSWSQYLRSTRAQAAPKHLFVSQSHSPPPLGFQVGMKLEAVNRMNPSLVCVASVTDVVDSRFLVHFDNWDDTYDYWCDPSSPYIHPVGWCQKQGKPLTPPQDYPDPDNFCWEKYLEETGASAVPTWAFKVRPPHSFLVNMKLEAVDRRNPALIRVASVEDVEDHRIKIHFDGWSHGYDFWIDADHPDIHPAGWCSKTGHPLQPPLGPREPSSASPGG
notes: Negative control; also called GST-3×MBTD355N; point-mutant; not shown: GST tag and PreScission linker of the pGEX6P1 vector at the N end
binding result [1]: no binding | binding result [2]: no binding | binding result [3]: no binding | binding result [4]: no binding | binding result [5]: no binding | binding result [6]: no binding (tested: 1 µg protein and 1 µg peptide) | binding result [7]: no binding (tested: 1 µg protein and 1 µg peptide)

B2: GST-3× Flag-3×MBTD355N (designed binder, not shown: a dimerising Fc or GST; small tags and cut ends)
chain: EEWSSSQPATGEKKECWSWESYLEEQKAITAPVSLFQDSQAVTHNKNGFKLGMKLEGIDPQHPSMYFILTVAEVCGYRLRLHFDGYSECHDFWVNANSPDIHPAGWFEKTGHKLQPPKGYKEEEFSWSQYLRSTRAQAAPKHLFVSQSHSPPPLGFQVGMKLEAVNRMNPSLVCVASVTDVVDSRFLVHFDNWDDTYDYWCDPSSPYIHPVGWCQKQGKPLTPPQDYPDPDNFCWEKYLEETGASAVPTWAFKVRPPHSFLVNMKLEAVDRRNPALIRVASVEDVEDHRIKIHFDGWSHGYDFWIDADHPDIHPAGWCSKTGHPLQPPLGPREPSSASPGG
binding result [8]: no binding

B3: 3× Flag-3×MBTD355N (designed binder)
chain: EEWSSSQPATGEKKECWSWESYLEEQKAITAPVSLFQDSQAVTHNKNGFKLGMKLEGIDPQHPSMYFILTVAEVCGYRLRLHFDGYSECHDFWVNANSPDIHPAGWFEKTGHKLQPPKGYKEEEFSWSQYLRSTRAQAAPKHLFVSQSHSPPPLGFQVGMKLEAVNRMNPSLVCVASVTDVVDSRFLVHFDNWDDTYDYWCDPSSPYIHPVGWCQKQGKPLTPPQDYPDPDNFCWEKYLEETGASAVPTWAFKVRPPHSFLVNMKLEAVDRRNPALIRVASVEDVEDHRIKIHFDGWSHGYDFWIDADHPDIHPAGWCSKTGHPLQPPLGPREPSSASPGG
notes: also called N-terminally Flag-tagged 3×MBTD355N; not shown: made by PreScission cleavage of the GST version
binding result [9]: no binding | binding result [10]: no binding | binding result [8]: no binding

B4: GST-tagged 3×MBT (three MBT repeats of L3MBTL1, amino acids 190-530, expressed as a GST fusion) (designed binder, not shown: a dimerising Fc or GST)
chain: EEWSSSQPATGEKKECWSWESYLEEQKAITAPVSLFQDSQAVTHNKNGFKLGMKLEGIDPQHPSMYFILTVAEVCGYRLRLHFDGYSECHDFWVNANSPDIHPAGWFEKTGHKLQPPKGYKEEEFSWSQYLRSTRAQAAPKHLFVSQSHSPPPLGFQVGMKLEAVDRMNPSLVCVASVTDVVDSRFLVHFDNWDDTYDYWCDPSSPYIHPVGWCQKQGKPLTPPQDYPDPDNFCWEKYLEETGASAVPTWAFKVRPPHSFLVNMKLEAVDRRNPALIRVASVEDVEDHRIKIHFDGWSHGYDFWIDADHPDIHPAGWCSKTGHPLQPPLGPREPSSASPGG
notes: Used in solution (peptide pull-down, Far Western, peptide array) and coupled to GSH-Sepharose (protein pull-down); also called GST-3×MBT; 3xMBT
binding result (3× Flag-SIRT1K622R): no binding | binding result [11]: no binding | binding result [12]: no binding

B5: 3×MBTD355N-Flag (C-terminally Flag-tagged 3×MBTD355N) (designed binder, not shown: small tags and cut ends)
chain: EEWSSSQPATGEKKECWSWESYLEEQKAITAPVSLFQDSQAVTHNKNGFKLGMKLEGIDPQHPSMYFILTVAEVCGYRLRLHFDGYSECHDFWVNANSPDIHPAGWFEKTGHKLQPPKGYKEEEFSWSQYLRSTRAQAAPKHLFVSQSHSPPPLGFQVGMKLEAVNRMNPSLVCVASVTDVVDSRFLVHFDNWDDTYDYWCDPSSPYIHPVGWCQKQGKPLTPPQDYPDPDNFCWEKYLEETGASAVPTWAFKVRPPHSFLVNMKLEAVDRRNPALIRVASVEDVEDHRIKIHFDGWSHGYDFWIDADHPDIHPAGWCSKTGHPLQPPLGPREPSSASPGG
binding result [9]: no binding | binding result [10]: no binding
